Assay results reported in IntAct's records for PubMed 31515488.

B1: Tuftelin-interacting protein 11 (Homo sapiens), Q9UBB9 (parent)
chain: MSLSHLYRDGEGRIDDDDDERENFEITDWDLQNEFNPNRQRHWQTKEEATYGVWAERDSDDERPSFGGKRARDYSAPVNFISAGLKKGAAEEAELEDSDDEEKPVKQDDFPKDFGPRKLKTGGNFKPSQKGFAGGTKSFMDFGSWERHTKGIGQKLLQKMGYVPGRGLGKNAQGIINPIEAKQRKGKGAVGAYGSERTTQSMQDFPVVDSEEEAEEEFQKELSQWRKDPSGSKKKPKYSYKTVEELKAKGRISKKLTAPQKELSQVKVIDMTGREQKVYYSYSQISHKHNVPDDGLPLQSQQLPQSGKEAKAPGFALPELEHNLQLLIDLTEQEIIQNDRQLQYERDMVVNLFHELEKMTEVLDHEERVISNLSKVLEMVEECERRMQPDCSNPLTLDECARIFETLQDKYYEEYRMSDRVDLAVAIVYPLMKEYFKEWDPLKDCTYGTEIISKWKSLLENDQLLSHGGQDLSADAFHRLIWEVWMPFVRNIVTQWQPRNCDPMVDFLDSWVHIIPVWILDNILDQLIFPKLQKEVENWNPLTDTVPIHSWIHPWLPLMQARLEPLYSPIRSKLSSALQKWHPSDSSAKLILQPWKDVFTPGSWEAFMVKNIVPKLGMCLGELVINPHQQHMDAFYWVIDWEGMISVSSLVGLLEKHFFPKWLQVLCSWLSNSPNYEEITKWYLGWKSMFSDQVLAHPSVKDKFNEALDIMNRAVSSNVGAYMQPGARENIAYLTHTERRKDFQYEAMQERREAENMAQRGIGVAASSVPMNFKDLIETKAEEHNIVFMPVIGKRHEGKQLYTFGRIVIYIDRGVVFVQGEKTWVPTSLQSLIDMAK
partner: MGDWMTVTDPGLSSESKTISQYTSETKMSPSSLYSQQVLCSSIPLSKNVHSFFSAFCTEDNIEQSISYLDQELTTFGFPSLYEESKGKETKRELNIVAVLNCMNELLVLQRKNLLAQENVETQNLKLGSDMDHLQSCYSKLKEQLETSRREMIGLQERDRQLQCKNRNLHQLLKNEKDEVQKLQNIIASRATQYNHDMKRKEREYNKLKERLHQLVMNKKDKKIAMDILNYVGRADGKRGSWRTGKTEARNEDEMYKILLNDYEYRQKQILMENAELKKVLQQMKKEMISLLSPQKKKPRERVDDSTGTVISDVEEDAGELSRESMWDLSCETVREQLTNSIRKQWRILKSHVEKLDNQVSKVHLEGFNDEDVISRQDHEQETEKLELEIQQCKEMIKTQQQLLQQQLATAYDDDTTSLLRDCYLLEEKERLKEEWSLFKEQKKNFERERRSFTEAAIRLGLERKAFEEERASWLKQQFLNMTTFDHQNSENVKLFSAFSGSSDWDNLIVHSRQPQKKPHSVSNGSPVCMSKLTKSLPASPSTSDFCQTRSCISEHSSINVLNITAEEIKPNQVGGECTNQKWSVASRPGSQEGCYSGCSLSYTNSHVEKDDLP
B2: Serine/threonine-protein kinase PAK 5 (Homo sapiens), Q9P286 (parent)
chain: MFGKKKKKIEISGPSNFEHRVHTGFDPQEQKFTGLPQQWHSLLADTANRPKPMVDPSCITPIQLAPMKTIVRGNKPCKETSINGLLEDFDNISVTRSNSLRKESPPTPDQGASSHGPGHAEENGFITFSQYSSESDTTADYTTEKYREKSLYGDDLDPYYRGSHAAKQNGHVMKMKHGEAYYSEVKPLKSDFARFSADYHSHLDSLSKPSEYSDLKWEYQRASSSSPLDYSFQFTPSRTAGTSGCSKESLAYSESEWGPSLDDYDRRPKSSYLNQTSPQPTMRQRSRSGSGLQEPMMPFGASAFKTHPQGHSYNSYTYPRLSEPTMCIPKVDYDRAQMVLSPPLSGSDTYPRGPAKLPQSQSKSGYSSSSHQYPSGYHKATLYHHPSLQSSSQYISTASYLSSLSLSSSTYPPPSWGSSSDQQPSRVSHEQFRAALQLVVSPGDPREYLANFIKIGEGSTGIVCIATEKHTGKQVAVKKMDLRKQQRRELLFNEVVIMRDYHHDNVVDMYSSYLVGDELWVVMEFLEGGALTDIVTHTRMNEEQIATVCLSVLRALSYLHNQGVIHRDIKSDSILLTSDGRIKLSDFGFCAQVSKEVPKRKSLVGTPYWMAPEVISRLPYGTEVDIWSLGIMVIEMIDGEPPYFNEPPLQAMRRIRDSLPPRVKDLHKVSSVLRGFLDLMLVREPSQRATAQELLGHPFLKLAGPPSCIVPLMRQYRHH
partner: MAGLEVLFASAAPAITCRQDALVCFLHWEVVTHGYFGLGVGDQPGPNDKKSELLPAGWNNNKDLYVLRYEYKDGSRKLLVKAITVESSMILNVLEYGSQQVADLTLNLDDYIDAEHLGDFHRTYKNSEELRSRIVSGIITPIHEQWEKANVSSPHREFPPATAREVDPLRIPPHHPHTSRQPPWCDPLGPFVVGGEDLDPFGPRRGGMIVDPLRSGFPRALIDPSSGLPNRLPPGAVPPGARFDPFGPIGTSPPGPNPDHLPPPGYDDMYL
B3: Microtubule-associated tumor suppressor candidate 2 (Homo sapiens), Q5JR59-3 (parent)
chain: MGHCCCKPYNCLQCLDKTNESALVKEKELSIELANIRDEVAFHTAKCEKLQKEKEELERRFEDEVKRLGWQQQAELQELEERLQLQFEAEMARLQEEHGDQLLSIRCQHQEQVEDLTASHDAALLEMENNHTVAITILQDDHDHKVQELMSTHELEKKELEENFEKLRLSLQDQVDTLTFQSQSLRDRARRFEEALRKNTEEQLEIALAPYQHLEEDMKSLKQVLEMKNQQIHEQEKKILELEKLAEKNIILEEKIQVLQQQNEDLKARIDQNTVVTRQLSEENANLQEYVEKETQEKKRLSRTNEELLWKLQTGDPTSPIKLSPTSPVYRGSSSGPSSPARVSTTPR
partner: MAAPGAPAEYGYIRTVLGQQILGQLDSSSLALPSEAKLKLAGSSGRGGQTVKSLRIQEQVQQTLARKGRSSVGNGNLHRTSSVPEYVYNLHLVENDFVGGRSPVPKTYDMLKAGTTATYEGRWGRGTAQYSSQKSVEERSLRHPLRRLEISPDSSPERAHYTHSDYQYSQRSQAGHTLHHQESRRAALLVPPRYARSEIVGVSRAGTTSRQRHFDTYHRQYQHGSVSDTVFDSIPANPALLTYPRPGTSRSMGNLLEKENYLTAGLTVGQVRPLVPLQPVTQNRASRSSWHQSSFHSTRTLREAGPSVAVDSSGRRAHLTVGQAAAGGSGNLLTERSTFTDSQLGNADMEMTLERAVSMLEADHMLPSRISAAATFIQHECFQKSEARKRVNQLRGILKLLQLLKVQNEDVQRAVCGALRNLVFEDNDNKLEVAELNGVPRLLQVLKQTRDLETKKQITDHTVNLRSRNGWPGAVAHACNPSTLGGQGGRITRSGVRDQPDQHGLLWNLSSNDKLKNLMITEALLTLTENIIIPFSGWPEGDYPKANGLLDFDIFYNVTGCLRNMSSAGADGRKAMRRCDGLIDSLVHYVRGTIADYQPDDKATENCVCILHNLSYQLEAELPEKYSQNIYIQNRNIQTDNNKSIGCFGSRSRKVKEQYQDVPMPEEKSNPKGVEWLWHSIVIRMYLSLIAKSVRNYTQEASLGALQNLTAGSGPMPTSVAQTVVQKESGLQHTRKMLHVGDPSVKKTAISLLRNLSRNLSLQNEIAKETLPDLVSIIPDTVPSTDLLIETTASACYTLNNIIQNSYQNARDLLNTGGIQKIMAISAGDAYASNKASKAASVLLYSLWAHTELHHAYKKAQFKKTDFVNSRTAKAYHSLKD
B4: Zinc finger CCHC domain-containing protein 10 (Homo sapiens), Q8TBK6 (parent)
chain: MATPMHRLIARRQAFDTELQPVKTFWILIQPSIVISEANKQHVRCQKCLEFGHWTYECTGKRKYLHRPSRTAELKKALKEKENRLLLQQSIGETNVERKAKKKRSKSVTSSSSSSSDSSASDSSSESEETSTSSSSEDSDTDESSSSSSSSASSTTSSSSSDSDSDSSSSSSSSTSTDSSSDDEPPKKKKKK
partner: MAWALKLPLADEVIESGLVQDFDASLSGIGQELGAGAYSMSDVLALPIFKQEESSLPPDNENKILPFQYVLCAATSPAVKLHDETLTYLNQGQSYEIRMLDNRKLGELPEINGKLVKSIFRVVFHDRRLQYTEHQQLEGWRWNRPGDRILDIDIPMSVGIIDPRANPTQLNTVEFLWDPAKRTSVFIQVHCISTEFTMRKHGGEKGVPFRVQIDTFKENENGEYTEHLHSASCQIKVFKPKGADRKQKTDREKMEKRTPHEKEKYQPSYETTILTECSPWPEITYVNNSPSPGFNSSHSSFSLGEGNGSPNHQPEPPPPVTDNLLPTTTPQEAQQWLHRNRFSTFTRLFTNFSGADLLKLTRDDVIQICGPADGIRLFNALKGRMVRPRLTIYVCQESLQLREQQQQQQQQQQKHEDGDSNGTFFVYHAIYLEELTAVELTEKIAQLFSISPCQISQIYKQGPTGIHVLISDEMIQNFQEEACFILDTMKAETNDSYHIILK
B5: IQ motif and ubiquitin-like domain-containing protein (Homo sapiens), Q8NA54 (parent)
chain: MSNQQEKYEAQNIVNSTEESDDAFDTVTIPVPSEEPQESDQTEEHESGIEQFSESHAIHVEEQSDQSFSSLEPDNEQLMEEVISPRQVSYTPQHHEKQYAMQRPNDDSLAFLDKIKSVKESLQESVEDSLATVKVVLIPVGQEIVIPFKVDTILKYLKDHFSHLLGIPHSVLQIRYSGKILKNNETLVQHGVKPQEIVQVEIFSTNPDLYPVRRIDGLTDVSQIITVTVQTGLDQYQQVPVEIVKSDFHKPFLGGFRHKVTGVEYHNAGTQTVPKRIPERLSIFCRDTQTVFQKKNLQQTTNTTSTQMTNIGVYVSNMTDKLVTPGKYFSAAEYHAQRLKAVIVIQTYYRQWHAKIFVENLRRQKSLRLEWETQQELRKIREKEEWIKLDYHRRHNPKTNEDFEFLYNALEFWRQEELTRINQSFTGAERKAALCELLEKETQIIASIGRHRYIAYMANQEAAIQAFLDKCSAPKIWRTPNGKTIEMDTQFTIRARELQNIYKCIMLKNISQDERLDVLLTLKHTVKEHECKLTQEILELIDREVDLMMRGVKHHNLEGLRKRIATLFFHYIKTPLFNPEVAKYLKVPQDPLKFYKKIYFCHSCQLYLPSTEFSVSSTSRRIYRCRNCINLQNEAQKRESFLKYKCLLQQLYYTEADYEDDSKIAFLMQLQDIQYLTENIWASQSVLSACDNLSDLVMVRWNKSLEWSPWNCILLTKDEAAAHLKLTSIEEGYERSFIHKIKHKHILAKNYFSQVPVLASFILDDGEIDEIRWKYHSDTTPKIIESQRPPH
partner: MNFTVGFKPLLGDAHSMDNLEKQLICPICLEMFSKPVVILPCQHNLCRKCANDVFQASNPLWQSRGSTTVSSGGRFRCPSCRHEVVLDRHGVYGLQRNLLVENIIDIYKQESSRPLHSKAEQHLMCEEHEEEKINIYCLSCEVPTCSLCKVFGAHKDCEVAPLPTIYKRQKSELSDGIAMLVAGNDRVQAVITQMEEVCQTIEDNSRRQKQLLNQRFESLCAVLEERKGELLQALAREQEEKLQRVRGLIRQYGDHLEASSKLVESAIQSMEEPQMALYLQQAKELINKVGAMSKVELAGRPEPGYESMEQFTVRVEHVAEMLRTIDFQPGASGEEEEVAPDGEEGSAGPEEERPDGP

Variants of: B1
Conditions: with adip_human SSX2IP

Row | Variant | effect of a mutation on the interaction
1 | S688L | with no effect

Variants of: B2
Conditions: with psmf1_human PSMF1, Q92530

Row | Variant | effect of a mutation on the interaction
2 | R335P | with no effect

Variants of: B3
Conditions: with pkp2_human PKP2, Q99959

Row | Variant | effect of a mutation on the interaction
3 | A89V | with no effect

Variants of: B4
Conditions: with tfcp2_human TFCP2, Q12800

Row | Variant | effect of a mutation on the interaction
4 | S153P | with no effect

Variants of: B5
Conditions: with tri54_human TRIM54, Q9BYV2

Row | Variant | effect of a mutation on the interaction
5 | V126M | with no effect
